Results as given in patent US20190015518A1, “DRUG DELIVERY COMPOSITIONS AND METHODS” (priority 2016, published 2019).
Values joined by “and” are separate entries in the source; they are usually repeats but may differ in a detail not shown here. Equal values may be shown once.

Key:
[1] = Rehydration time of lyophilized HA-Lys-Pt; assay type: physicochemical
Procedure: 33HA-Lys-Pt (MW of HA: 33 kDa) from batch 33_01015 was used to evaluate the impact of trehalose as an excipient and lyoprotectant. […] The solution was freeze-dried using the following program. Samples were frozen in a −80° C. freezer for 4 hours. The vials were transferred to a freeze dryer and kept at −40° C. for 1.5 hours. The condenser point was set at −70° C. The vacuum setpoint was 100 mTorr. The parameters for primary drying were 30 hours at −35° C. and 10 mTorr. The parameters for secondary drying were 5 hours at 2° C. and 10 mTorr, followed by another 5 hours at 8° C. and 10 mTorr. […] During rehydration, 500-μL of water was added to the vial and the sample was gently shaken. The small molecular weight platinum species such as mono-aquated and di-aquated platinum were separated from the reconstituted 33HA-Lys-Pt using a Centricon centrifugal filter unit (10,000 MWCO, 4000 rpm for 10 min at 4° C.) and analyzed by an HPLC assay. The mobile phase was sodium phosphate solution (10-mM, pH 3.0) at a flow rate of 0.25 mL/min on an Alltech® 250 mm×4.6 mm M/M RP8/cation column thermostated at 25° C.
The solution was freeze-dried using the following program. Samples were frozen in a −80° C. freezer for 4 hours. The vials were transferred to a freeze dryer and kept at −40° C. for 1.5 hours. The condenser point was set at −70° C. The vacuum setpoint was 100 mTorr. The parameters for primary drying were 30 hours at −35° C. and 10 mTorr. The parameters for secondary drying were 5 hours at 2° C. and 10 mTorr, followed by another 5 hours at 8° C. and 10 mTorr. […] During rehydration, 500-μL of water was added to the vial and the sample was gently shaken.
One milliliter of samples were used for all tests. The trehalose percent weights varied from 8-20% wt. The pHs included 4.5, 5, 6, and 7. The solution was freeze-dried using the aforementioned freeze-drying program. […] During rehydration, 1-mL of water was added to the vial and the sample was gently shaken. Diaquated platinum species were separated using the aforementioned Centricon units and analyzed using the aforementioned HPLC method.
Other sample freezing methods were also tested. For examples, samples were gradually frozen in ethanol bath at −80° C. and lyophilized. In addition, samples were flash frozen using liquid nitrogen and lyophilized.
Rehydration using one half of the original sample volume was tested.
Besides trehalose, PEG 200 (2 and 5% wt) was tested as a second excipient to aid the rehydrate process.

[2] = tested on: 4T1.2-neu (murine breast cancer cells); test: Anti-proliferative activity (Resazurin Blue, 72 hours); assay type: cell-based; conditions: mean ± S.E.M., cisplatin basis
Procedure: MDA-1986 (human head and neck squamous cell carcinoma), 4T1.2-neu (murine breast cancer cells), and A2058 (human melanoma) cells were maintained in Dulbecco's Modified Eagle Medium (DMEM, Corning, Manassas, Va.) with 4.5 g/L glucose, 4.5 g/L L-glutamine, and 10% fetal bovine serum in a humidified incubator at 37° C. and 5% CO2. Cells were seeded into 96-well plates (3,000 cells/well in 90 μL media) and allowed to attach overnight. […] Resazurin Blue (Acros Organics, Geel, Belgium) in PBS was added to each well (5-μM final concentration; 10-μL addition) and incubated at 37° C. for 4 hours. Fluorescence (λex 550 nm, λem 605 nm) was quantified with a SpectraMax Gemini XS plate-reader (Molecular Devices, Sunnyvale, Calif.). The relative growth of cells incubated with each compound concentration was normalized to vehicle-treated controls (100% proliferation). Data from at least three separate experiments performed in duplicate was analyzed using non-linear regression (GraphPad Prism 5.0) to generate IC50 values.

[3] = Viscosity reduction by excipients (rheometer); assay type: physicochemical
Procedure: The viscosity of 29 kDa HA (60 mg/mL), 33HA-Lys (33 kDa HA with linker, 8 mg/mL on HA basis), and 33HA-Lys-Pt (41.7 mg/mL on HA basis) with increasing concentration of mannitol (0, 0.1, 0.5 and 1 M) were measured using a rheometer at 37° C.
The solutions were incubated in the dark for 20 hours using a CLAY ADAMS® Brand Nutator. After 20 hours, the pH of the solutions were adjusted to pH 6.0 using 1N NaOH. A Brookfield DVIII Ultra Programmable Rheometer was used to measure the viscosity of three 500-μL samples of each solution. Measurements were taken for each at three different RPMs, where the torque ranged from 10-100%. Values for viscosity were not recorded until at least 30 seconds after the motor was started, after the torque readings were stabilized.
The solutions were incubated in the dark for 20 hours using a CLAY ADAMS® Brand Nutator. After 20 hours, the pH of the solutions were adjusted to pH 5.0 or 6.0 using 1N NaOH. A Brookfield DVIII Ultra Programmable Rheometer was used to measure the viscosity of three 500-μL samples of each solution. Measurements were taken for each at three different RPMs, where the torque ranged from 10-100%. Values for viscosity were not recorded until at least 30 seconds after the motor was started, after the torque readings were stabilized.

[4] = Microscopic urinalysis of a healthy dog given 1.5 mg/kg on day 1 and 2.0 mg/kg on day 70, sub-mucosa; assay type: in vivo
Procedure: Before each dose, the dog was examined by clinical chemistry, hematology, and urinalysis. Additional examinations of clinical chemistry and hematology were performed on days 7, 14, and 42 after the first dose. Additional tests of urinalysis were performed on days 7 and 14 after the first dose. The potential drug-induced toxicities were monitored for 56 days after the second dose. Specifically, clinical chemistry and urinalysis were performed on days 7, 14, 21, and 56, and hematology was performed on days 7, 14, and 56 after the second dose to evaluate the tolerability and toxicity of the formulation.
Microscopic urinalyses were performed at pre- and post-dose for both injections. The injections were given via the sub-mucosa in the mouth.

## HA-cis-[Pt(NH3)2(N^α-Acetyl-L-Lysine)] [75HA-Lys-Pt]
[1]; 1.46 mg/mL, pH 6, trehalose 0% wt
  Rehydration Time: >48 h
[1]; 1.46 mg/mL, pH 6, trehalose 5% wt
  Rehydration Time: Ca. 12 hour
[1]; 1.46 mg/mL, pH 6, trehalose 10% wt
  Rehydration Time: 7 h
[1]; 1.46 mg/mL, pH 6, trehalose 15% wt
  Rehydration Time: 6 h
[1]; 1.46 mg/mL, pH 7, trehalose 5% wt
  Rehydration Time: ca. 2.5 hour
[1]; 1.46 mg/mL, pH 7, trehalose 10% wt
  Rehydration Time: 1 h
[1]; 1.46 mg/mL, pH 7, trehalose 15% wt
  Rehydration Time: 1 h
[1]; 1.99 mg/mL, pH 4.5, trehalose 15% wt
  Rehydration Time: 26 h
[1]; 1.99 mg/mL, pH 4.5, trehalose 20% wt
  Rehydration Time: 26 h
[1]; 1.99 mg/mL, pH 5, trehalose 15% wt
  Rehydration Time: 26 h
[1]; 1.99 mg/mL, pH 5, trehalose 20% wt
  Rehydration Time: 26 h
[1]; 1.99 mg/mL, pH adjusted to 5 at rehydration, trehalose 10% wt
  Rehydration Time: 6 to 20 h
[1]; 1.99 mg/mL, pH adjusted to 6 at rehydration, trehalose 10% wt
  Rehydration Time: 6 to 20 h
[1]; 1.99 mg/mL, pH adjusted to 7 at rehydration, trehalose 10% wt
  Rehydration Time: 6 to 20 h
[1]; 3 mg/mL, pH 5, trehalose 15% wt
  Rehydration Time: >48 h
[1]; batch 75_0706, 1.06 mg/mL, pH 5, trehalose 7.5% wt, rehydration using half the original volume
  Rehydration Time: 7 h
[1]; batch 75_0706, 1.06 mg/mL, pH 5, trehalose 10% wt, rehydration using half the original volume
  Rehydration Time: 7 h
[1]; batch 75_0706, 2.13 mg/mL, pH 5, trehalose 15% wt, Ethanol bath
  Rehydration Time: >48 h
[1]; batch 75_0706, 2.13 mg/mL, pH 5, trehalose 20% wt, Ethanol bath
  Rehydration Time: >48 h
[1]; batch 75_0706, 2.13 mg/mL, pH 5, trehalose 20% wt, PEG200 2% wt
  Rehydration Time: 48 h
[1]; batch 75_0706, 2.13 mg/mL, pH 5, trehalose 20% wt, PEG200 5% wt
  Rehydration Time: 48 h
[1]; batch 75_0706, 3.00 mg/mL, pH 5, trehalose 15% wt
  Rehydration Time: >48 h
[2]
  IC50: 80.1 ± 12.7 µM
[3]; 12 mM CaAc2, pH 5.0
  percent reduction of viscosity: 25.1-78.0%
[3]; 12 mM CaAc2, pH 6.0
  percent reduction of viscosity: 21.4-81.0%
[3]; 12 mM NaCl, pH 5.0
  percent reduction of viscosity: 36.6-83.2%
[3]; 12 mM calcium lactate, pH 5.0
  percent reduction of viscosity: 23.0-71.8%
[3]; 12 mM calcium lactate, pH 6.0
  percent reduction of viscosity: 24.3-80.9%
[3]; 12 mM sodium acetate and trehalose 15% wt, pH 5.0, two batches
  percent reduction of viscosity: 54.1% and 84.3%
[3]; 12 mM sodium acetate, pH 5.0
  percent reduction of viscosity: 14.5-89.2%
[3]; 12 mM sodium carbonate and trehalose 15% wt, pH 5.0
  percent reduction of viscosity: 48.5-99.0%
[3]; 12 mM sodium carbonate, pH 5.0
  percent reduction of viscosity: 60.6-99.2%
[3]; 12 mM sodium citrate and trehalose 15% wt, pH 5.0
  percent reduction of viscosity: 15.6-95.4%
[3]; 12 mM sodium citrate, pH 5.0
  percent reduction of viscosity: 38.4-97.2%
[3]; CaCl2-containing PBS buffer, pH 6.0, three batches
  percent reduction of viscosity: 55.2-88.6%
[3]; Sodium Chelex 100, pH 5.0, two batches
  percent reduction of viscosity: 82.0% and 91.7%
[3]; buffer-free CaCl2, pH 5.0, three batches
  percent reduction of viscosity: 32.1-76.6%
[3]; buffer-free CaCl2, pH 6.0, three batches
  percent reduction of viscosity: 26.6-77.0%
[4]; 2 mg/kg, 7 days after
  Cast: Rare triple
  Trpl Ph Crystal: Rare
[4]; 2 mg/kg, 14 days after
  urine Red Blood Cells: 16-30
[4]; 2 mg/kg, 21 days after
  Bac-U: Few
  Trpl Ph Crystal: Rare triple
  urine Red Blood Cells: 1-5
[4]; 2 mg/kg, 56 days after
  Bac-U: Rare
  Trpl Ph Crystal: Few
  urine Red Blood Cells: TNTC
[4]; […], 7 days after
  Bac-U: Moderate
  Trpl Ph Crystal: Few
[4]; […], 14 days
  Bac-U: Few
